According to publication PMC5270677:

Biological target: Quiescin-sulfhydryl oxidase (QSOX), recombinant human (human) (UniProt O00391)
Assay: SPR; Biacore 3000; […]; 30 ul/min in PBS, 0.05% Tween 20, 3 mM EDTA at 25°C; 1:1 Langmuir model; […]

Quiescin-sulfhydryl oxidase (QSOX), recombinant human (human), sequence (O00391 30-709): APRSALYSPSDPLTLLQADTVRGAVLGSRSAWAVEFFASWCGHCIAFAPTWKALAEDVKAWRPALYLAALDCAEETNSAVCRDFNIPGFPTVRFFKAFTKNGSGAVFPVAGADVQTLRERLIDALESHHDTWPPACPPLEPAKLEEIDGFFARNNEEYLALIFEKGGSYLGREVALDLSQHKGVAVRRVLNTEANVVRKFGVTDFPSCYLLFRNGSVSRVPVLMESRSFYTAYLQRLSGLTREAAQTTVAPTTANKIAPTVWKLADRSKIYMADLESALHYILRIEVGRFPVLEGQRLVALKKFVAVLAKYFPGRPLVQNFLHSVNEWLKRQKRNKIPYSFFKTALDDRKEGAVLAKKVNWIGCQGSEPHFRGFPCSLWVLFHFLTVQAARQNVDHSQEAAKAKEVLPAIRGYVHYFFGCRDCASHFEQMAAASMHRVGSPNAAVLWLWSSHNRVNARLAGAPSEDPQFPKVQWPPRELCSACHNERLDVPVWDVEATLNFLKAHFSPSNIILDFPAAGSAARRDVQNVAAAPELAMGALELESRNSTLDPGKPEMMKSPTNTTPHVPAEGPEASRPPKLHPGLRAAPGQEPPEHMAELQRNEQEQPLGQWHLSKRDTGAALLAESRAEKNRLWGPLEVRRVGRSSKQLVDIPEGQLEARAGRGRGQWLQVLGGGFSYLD
unfolded N-terminal region of human PrP, HuPrP(23-145), sequence (P04156 23-145): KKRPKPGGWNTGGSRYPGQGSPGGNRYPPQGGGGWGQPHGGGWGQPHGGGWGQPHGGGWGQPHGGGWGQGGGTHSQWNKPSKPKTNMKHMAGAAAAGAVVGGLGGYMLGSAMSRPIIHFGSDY

**Q.** What does the source list for “unfolded N-terminal region of human PrP, HuPrP(23-145) (from UniProt P04156 23-145) (domain or fragment)”?
**A.** Kd: 3.6 nM; koff: 4.78e-05 s⁻¹; kon: 13200 M⁻¹ s⁻¹
